B1: 3BP-4259 (peptide)
peptide: {DOTA-Cmp}-DCE[dP]DWLTW[Dap]C-NH2
modifications: lactam 10-1; linker 2-11 via mXylylene; reading uncertain
B2: 3BP-4135 (peptide)
peptide: {DOTA-APAc}-VYCE[dP]D[Phe(3-CF3)]LTWSC-NH2
modifications: linker 3-12 via mXylylene; not fully specified; reading uncertain
B3: 3BP-4253 (peptide)
peptide: {DOTA}-DCE[dP]DWLTW[Dap]C-NH2
modifications: lactam 10-1; linker 2-11 via mXylylene
SMILES: CC(C)C[C@@H]1NC(=O)[C@H](Cc2c[nH]c3ccccc23)NC(=O)[C@H](CC(=O)O)NC(=O)[C@H]2CCCN2C(=O)[C@H](CCC(=O)O)NC(=O)[C@@H]2CSCc3cccc(c3)CSC[C@@H](C(N)=O)NC(=O)[C@H](CNC(=O)C[C@H](NC(=O)CN3CCN(CC(=O)O)CCN(CC(=O)O)CCN(CC(=O)O)CC3)C(=O)N2)NC(=O)[C@H](Cc2c[nH]c3ccccc23)NC(=O)[C@H]([C@@H](C)O)NC1=O
B4: 3BP-4178 (peptide)
peptide: [dP]PVYCE[dP]DWLTWSC
modifications: linker 5-14 via mXylylene; not fully specified (bridges)
notes: Bracket use differs from the other compounds; the outer cycle is read as closing pro1 with Cys14
B5: 3BP-4143 (peptide)
peptide: {DOTA-APAc″}-VYCE[dP]DW[Cha]TWSC-NH2
modifications: linker 3-12 via mXylylene
B6: 3BP-4134 (peptide)
peptide: {DOTA-APAc}-VYCE[dP]D[Phe(4-I)]LTWSC-NH2
modifications: linker 3-12 via mXylylene; not fully specified; reading uncertain
B7: 3BP-4234 (peptide)
peptide: {DOTA-APAc″}-VYCE[dP]D[Af3(MCprAc)]LTWSC-NH2
modifications: linker 3-12 via mXylylene
B8: 3BP-4255 (peptide)
peptide: {DOTA-PPAc}-DCE[dP]DWLTW[Dap]C-NH2
modifications: lactam 10-1; linker 2-11 via mXylylene
B9: 3BP-4258 (peptide)
peptide: {DOTA-4Amc}-DCE[dP]DWLTW[Dap]C-NH2
modifications: lactam 10-1; linker 2-11 via mXylylene; reading uncertain
B10: 3BP-4260 (peptide)
peptide: {DOTA-3Amb}-DCE[dP]DWLTW[Dap]C-NH2
modifications: lactam 10-1; linker 2-11 via mXylylene
SMILES: CC(C)C[C@@H]1NC(=O)[C@H](Cc2c[nH]c3ccccc23)NC(=O)[C@H](CC(=O)O)NC(=O)[C@H]2CCCN2C(=O)[C@H](CCC(=O)O)NC(=O)[C@@H]2CSCc3cccc(c3)CSC[C@@H](C(N)=O)NC(=O)[C@H](CNC(=O)C[C@H](NC(=O)c3cccc(CNC(=O)CN4CCN(CC(=O)O)CCN(CC(=O)O)CCN(CC(=O)O)CC4)c3)C(=O)N2)NC(=O)[C@H](Cc2c[nH]c3ccccc23)NC(=O)[C@H]([C@@H](C)O)NC1=O
B11: 3BP-4132 (peptide)
peptide: {DOTA-APAc}-VYCE[dP]D[Dip]LTWSC-NH2
modifications: linker 3-12 via mXylylene; not fully specified; reading uncertain
B12: 3BP-4113 (peptide)
peptide: {DOTA-APAc}-VYCE(AGLU′)[dP]DWLTWSC-NH2
modifications: linker 3-12 via mXylylene; reading uncertain
B13: 3BP-4261 (peptide)
peptide: {DOTA-4Amb}-DCE[dP]DWLTW[Dap]C-NH2
modifications: lactam 10-1; linker 2-11 via mXylylene
SMILES: CC(C)C[C@@H]1NC(=O)[C@H](Cc2c[nH]c3ccccc23)NC(=O)[C@H](CC(=O)O)NC(=O)[C@H]2CCCN2C(=O)[C@H](CCC(=O)O)NC(=O)[C@@H]2CSCc3cccc(c3)CSC[C@@H](C(N)=O)NC(=O)[C@H](CNC(=O)C[C@H](NC(=O)c3ccc(CNC(=O)CN4CCN(CC(=O)O)CCN(CC(=O)O)CCN(CC(=O)O)CC4)cc3)C(=O)N2)NC(=O)[C@H](Cc2c[nH]c3ccccc23)NC(=O)[C@H]([C@@H](C)O)NC1=O
B14: 3BP-4242 (peptide)
peptide: {DOTA-APAc″}-VYCE[dP]D[Af3(MSAc)]LTWSC-NH2
modifications: linker 3-12 via mXylylene
B15: 3BP-4237 (peptide)
peptide: {DOTA-APAc″}-VYCE[dP]D[Af3(HO-Succinyl)]LTWSC-NH2
modifications: linker 3-12 via mXylylene
B16: 3BP-4235 (peptide)
peptide: {DOTA-APAc″}-VYCE[dP]D[Af3(Prp)]LTWSC-NH2
modifications: linker 3-12 via mXylylene
B17: 3BP-4139 (peptide)
peptide: {DOTA-APAc}-VYCE[dP]D[Phe(4-CF3)]LTWSC-NH2
modifications: linker 3-12 via mXylylene; not fully specified; reading uncertain
B18: 3BP-4131 (peptide)
peptide: {DOTA-APAc}-VYCE[dP]D[Bip]LTWSC-NH2
modifications: linker 3-12 via mXylylene; not fully specified; reading uncertain
B19: 3BP-4159 (peptide)
peptide: {DOTA-APAc″}-VYCE[dP]DWLT[Trp(7-aza)]SC-NH2
modifications: linker 3-12 via mXylylene
B20: 3BP-4144 (peptide)
peptide: {DOTA-APAc″}-VYCE[dP]D[ξTrp(1-Me)]LTWSC-NH2
modifications: linker 3-12 via mXylylene; not fully specified
B21: 3BP-4142 (peptide)
peptide: {DOTA-APAc″}-VYCE[dP]DW[tBuAla]TWSC-NH2
modifications: linker 3-12 via mXylylene
B22: 3BP-4236 (peptide)
peptide: {DOTA-APAc″}-VYCE[dP]D[Af3(Iva)]LTWSC-NH2
modifications: linker 3-12 via mXylylene
B23: 3BP-4158 (peptide)
peptide: {DOTA-APAc″}-VYCE[dP]D[ξTrp(7-Me)]LTWSC-NH2
modifications: linker 3-12 via mXylylene; not fully specified
B24: 3BP-4254 (peptide)
peptide: {DOTA-APAc″}-DCE[dP]DWLTW[Dap]C-NH2
modifications: lactam 10-1; linker 2-11 via mXylylene
B25: 3BP-4133 (peptide)
peptide: {DOTA-APAc}-VYCE[dP]D[Phe(3,4-Cl2)]LTWSC-NH2
modifications: linker 3-12 via mXylylene; not fully specified; reading uncertain
B26: 3BP-4256 (peptide)
peptide: {DOTA-Inp′}-DCE[dP]DWLTW[Dap]C-NH2
modifications: lactam 10-1; linker 2-11 via mXylylene
B27: 3BP-4453 (peptide)
peptide: {DOTA}-QCE[dP]D[Phe(3-NHCO(CH2)3SO2NH2)]LTWSC-NH2
modifications: linker 2-11 via mXylylene
SMILES: CC(C)C[C@@H]1NC(=O)[C@H](Cc2cccc(NC(=O)CCCS(N)(=O)=O)c2)NC(=O)[C@H](CC(=O)O)NC(=O)[C@H]2CCCN2C(=O)[C@H](CCC(=O)O)NC(=O)[C@@H](NC(=O)[C@H](CCC(N)=O)NC(=O)CN2CCN(CC(=O)O)CCN(CC(=O)O)CCN(CC(=O)O)CC2)CSCc2cccc(c2)CSC[C@@H](C(N)=O)NC(=O)[C@H](CO)NC(=O)[C@H](Cc2c[nH]c3ccccc23)NC(=O)[C@H]([C@@H](C)O)NC1=O
B28: 3BP-4500 (peptide)
peptide: {DOTA-PPAc}-QCE[dP]D[Aph(SaPr)]LTWSC-NH2
modifications: linker 2-11 via mXylylene

Starred links: 1 amine or outer side, 2 acyl side, 3 side chain; linkers in the order of their positions; H or OH if unused. Positions of bridges follow the written chain, without caps; N, C: chain ends. Non-standard residues stand in square brackets, D forms with d. Primed or numbered codes have the meaning given here. No end group written: not given here. ξ: configuration not given here. *: point of attachment. Af3(MCprAc) = 3-aminophenylalanine with 1-methylcyclopropane-1-carbonyl on the ring amine, CC1(C(=O)Nc2cccc(C[C@H](N[*:1])C(=O)[*:2])c2)CC1; Aph(SaPr) = 4-amino-L-phenylalanine, ring amine acylated by 3-sulfamoylpropanoic acid, NS(=O)(=O)CCC(=O)Nc1ccc(C[C@H](N[*:1])C(=O)[*:2])cc1; Af3(HO-Succinyl) = 3-aminophenylalanine with succinyl (free acid) on the ring amine, O=C(CCC(=O)[*:3])Nc1cccc(C[C@H](N[*:1])C(=O)[*:2])c1; Af3(MSAc) = 3-aminophenylalanine with 2-methanesulfonylacetyl on the ring amine, CS(=O)(=O)CC(=O)Nc1cccc(C[C@H](N[*:1])C(=O)[*:2])c1; Af3(Iva) = 3-aminophenylalanine with isovaleryl on the ring amine, CC(C)CC(=O)Nc1cccc(C[C@H](N[*:1])C(=O)[*:2])c1; Af3(Prp) = 3-aminophenylalanine with propionyl on the ring amine, CCC(=O)Nc1cccc(C[C@H](N[*:1])C(=O)[*:2])c1; Phe(3-NHCO(CH2)3SO2NH2) = N[C@@H](Cc1cccc(NC(=O)CCCS(N)(=O)=O)c1)C(=O)O; APAc″ = 2-(4-(amino)piperidin-1-yl)acetic acid, NC1CCN(CC(=O)*)CC1; DOTA = O=C(O)CN1CCN(CC(=O)O)CCN(CC(=O)*)CCN(CC(=O)O)CC1; Phe(3,4-Cl2) = N[C@@H](Cc1ccc(Cl)c(Cl)c1)C(=O)O; Phe(3-CF3) = N[C@@H](Cc1cccc(C(F)(F)F)c1)C(=O)O; Phe(4-CF3) = N[C@@H](Cc1ccc(C(F)(F)F)cc1)C(=O)O; Trp(7-aza) = N[C@@H](Cc1c[nH]c2ncccc12)C(=O)O; ξTrp(7-Me) = Cc1cccc2c(CC(N)C(=O)O)c[nH]c12; Bip = N[C@@H](Cc1ccc(-c2ccccc2)cc1)C(=O)O; PPAc = 4-carboxymethyl piperazine linker; ξTrp(1-Me) = Cn1cc(CC(N)C(=O)O)c2ccccc21; Dip = N[C@H](C(=O)O)C(c1ccccc1)c1ccccc1; Phe(4-I) = N[C@@H](Cc1ccc(I)cc1)C(=O)O; mXylylene = c1cc(C[*:1])cc(C[*:2])c1; tBuAla = CC(C)(C)C[C@H](N)C(=O)O; Cha = N[C@@H](CC1CCCCC1)C(=O)O; 3Amb = NCc1cccc(C(=O)O)c1; 4Amb = NCc1ccc(C(=O)O)cc1; AGLU′ = not defined here; 4Amc = not defined here; APAc = not defined here; Inp′ = not defined here; Cmp = not defined here; Dap = NC[C@H](N)C(=O)O Bounds are passed on as bounds.

The target in the first test is human carbonic anhydrase 9 (CAIX) (human, UniProt Q16790 38-459). As to the kind of experiment: FACS competition on HT-29 cells, competitor tracer 3BP-2776; category A = pIC50 >8.0. The method, then:
CAIX-expressing human HT-29 colorectal cancer cells (DSMZ, RRID: CVCL_0320) were cultured in McCoys's 5A modified medium (Biochrom, #F1015) including 10% fetal calf serum (FCS), 2 mM L-glutamine, 100 U/ml penicillin and 100 μg/mL streptomycin. Cells were detached with Accutase (Biolegend, #423201) and washed in FACS buffer (PBS including 1% FCS). Cells were diluted in FACS buffer to a final concentration of 500.000 cells per ml. 200 μL of the cell suspension were transferred to a u-shaped non-binding 96-well plate (Greiner) and cells were washed in ice-cold FACS buffer.
When biotinylated compounds were used an additional incubation step with 1 μg/mL APC-Streptavidin (Miltenyi; #130-106-791) in 50 μL FACS buffer for 30 minutes on ice was performed.
Cells were washed twice with ice-cold FACS buffer and analyzed in an Attune NxT flow cytometer (Thermo Fisher). Median fluorescence intensities (MFI) of the APC/Cy5-channel were calculated by Attune NxT software.
Consider B1, for which the pIC50 was > 8 pic50.
The same measure, in the same setting: the value for B2 was > 8 pic50; that for B3 was > 8 pic50.
Take B4: the pIC50 is > 8 pic50.
Same read-out and setting: then B5, with > 8 pic50; and B6, with > 8 pic50; and B7, with > 8 pic50.
In the case of B8, the pIC50 was > 8 pic50.
Regarding B9, the pIC50 is > 8 pic50.
Still for that read-out and setting: then B10, with > 8 pic50; and B11, with > 8 pic50; and B12, with > 8 pic50.
On the same count and under the same terms, the value for B13 was > 8 pic50; that for B14 was > 8 pic50; that for B15 was > 8 pic50.
On the same count and under the same terms, the value for B16 was > 8 pic50; that for B17 was > 8 pic50.
With B18, the pIC50 was > 8 pic50.
Regarding B19, the pIC50 was > 8 pic50.
On the same count and under the same terms, the value for B20 was > 8 pic50; that for B21 was > 8 pic50; that for B22 was > 8 pic50.
The same measure, in the same setting: the value for B23 was > 8 pic50.
Same read-out and setting: then B24, with > 8 pic50.
As to B25, the pIC50 was > 8 pic50.
On the same count and under the same terms, the value for B26 was > 8 pic50.

A further test concerns the target Fc-fusion protein of human carbonic anhydrase IX (human, UniProt Q16790 38-414). In words: SPR, captured hCAIX-Fc; t1/2 category A: >15.0 min. The method, then: Stock solutions of test compounds were prepared by dissolving each compound in DMSO. DMSO stock solution were diluted 1:1000 in Running Buffer without DMSO. […] SPR binding analyses were performed in Single Cycle Kinetic (SCK) mode at 25° C.
For each test compound, SPR raw data in the form of resonance units (RU) were plotted as sensorgrams using the Biacore™ T200 control software. The signal from the blank sensorgram was subtracted from that of the test compound sensorgram (blank corrected). The blank corrected sensorgram was corrected for baseline drift by subtracting the sensorgram of a SCK run without the test compound (running buffer only). […] Raw data and fit results were imported as text files in IDBS. The pKD value (negative decadic logarithm of dissociation constant) was calculated in the IDBS excel template.
Regarding B27, the “t1/2 (half-life of the complex, SPR)” value is > 15 min.
Same read-out and setting: then B28, with > 15 min.
